PMC9482650, “Quantitative fragmentomics allow affinity mapping of interactomes” (Nature Communications, 2022)

T1: APBA1_1, Q02410
T1 sequence (Q02410 651-752, limits assumed, looked up): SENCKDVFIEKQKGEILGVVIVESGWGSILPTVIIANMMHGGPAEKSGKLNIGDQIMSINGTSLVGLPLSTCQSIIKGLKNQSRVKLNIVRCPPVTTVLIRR

T2: SNTB1, Q13884
T2 sequence (Q13884 107-205, limits assumed, looked up): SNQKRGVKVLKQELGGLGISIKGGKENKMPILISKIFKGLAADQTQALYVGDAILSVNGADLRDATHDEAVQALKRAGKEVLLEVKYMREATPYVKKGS

T3: APBA2_2, Q99767
T3 sequence (Q99767 654-744, limits assumed, looked up): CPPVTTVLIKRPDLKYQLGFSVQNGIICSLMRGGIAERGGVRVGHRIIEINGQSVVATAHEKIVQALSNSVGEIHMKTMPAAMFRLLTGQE

T4: FRMPD1, Q5SYB0
T4 sequence (Q5SYB0 52-145, limits assumed, looked up): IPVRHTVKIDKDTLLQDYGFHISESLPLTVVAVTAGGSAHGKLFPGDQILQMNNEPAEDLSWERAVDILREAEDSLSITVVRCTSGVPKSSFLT

T5: NHERF3_3, Q5T2W1
T5 sequence (Q5T2W1 238-333, limits assumed, looked up): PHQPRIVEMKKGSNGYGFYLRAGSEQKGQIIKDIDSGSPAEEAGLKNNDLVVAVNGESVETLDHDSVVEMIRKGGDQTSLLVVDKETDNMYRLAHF

T6: NHERF3_1, Q5T2W1
T6 sequence (Q5T2W1 4-100, limits assumed, looked up): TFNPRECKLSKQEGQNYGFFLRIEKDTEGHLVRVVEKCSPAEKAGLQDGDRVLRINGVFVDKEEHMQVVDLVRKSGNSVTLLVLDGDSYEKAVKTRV

T7: GRIP1_4, Q9Y3R0
T7 sequence (Q9Y3R0 467-571, limits assumed, looked up): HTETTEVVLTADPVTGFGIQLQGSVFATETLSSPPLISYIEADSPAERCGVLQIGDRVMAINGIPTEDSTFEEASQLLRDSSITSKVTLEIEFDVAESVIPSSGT

T8: RAPGEF6, Q8TEU7
T8 sequence (Q8TEU7 525-625, limits assumed, looked up): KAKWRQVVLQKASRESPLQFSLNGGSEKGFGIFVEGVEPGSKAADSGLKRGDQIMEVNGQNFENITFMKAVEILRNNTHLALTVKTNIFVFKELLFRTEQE

T9: HTRA4, P83105
T9 sequence (P83105 378-476, limits assumed, looked up): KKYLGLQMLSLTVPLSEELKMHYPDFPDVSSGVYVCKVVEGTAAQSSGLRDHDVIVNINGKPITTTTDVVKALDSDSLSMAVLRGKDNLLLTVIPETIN

T10: APBA1_2, Q02410
T10 sequence (Q02410 742-832, limits assumed, looked up): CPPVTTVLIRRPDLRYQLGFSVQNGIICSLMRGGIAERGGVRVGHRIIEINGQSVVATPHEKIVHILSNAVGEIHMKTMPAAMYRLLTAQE

T11: LIN7B, Q9HAP6
T11 sequence (Q9HAP6 88-185, limits assumed, looked up): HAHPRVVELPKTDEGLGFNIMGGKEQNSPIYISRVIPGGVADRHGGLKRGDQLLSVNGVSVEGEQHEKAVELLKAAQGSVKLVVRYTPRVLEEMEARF

T12: GRIP1_5, Q9Y3R0
T12 sequence (Q9Y3R0 568-668, limits assumed, looked up): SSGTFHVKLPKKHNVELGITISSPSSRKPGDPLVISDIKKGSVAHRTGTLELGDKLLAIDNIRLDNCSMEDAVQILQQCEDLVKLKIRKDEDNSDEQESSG


What was measured:
Experiment in all cases: holdup assay
Set-up in all cases: key: below the threshold = too weak to quantify, mostly under pKd 3.1 to 4
Details in all cases: plain residues with an end cap or a label only (N-terminal biotin on a linker: ado-ado)
[1] = molecular target: GOPC, Q9HD26
[2] = molecular target: T1, APBA1_1, Q02410
[3] = molecular target: GORASP2, Q9H8Y8
[4] = molecular target: MAST1, Q9Y2H9
Sequence of MAST1, Q9Y2H9 (Q9Y2H9 962-1065): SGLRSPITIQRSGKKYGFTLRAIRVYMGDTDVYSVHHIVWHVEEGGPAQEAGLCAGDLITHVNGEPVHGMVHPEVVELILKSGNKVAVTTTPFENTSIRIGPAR

[5] = molecular target: T2, SNTB1, Q13884
[6] = molecular target: LDB3, O75112
Sequence of LDB3, O75112 (O75112 1-94): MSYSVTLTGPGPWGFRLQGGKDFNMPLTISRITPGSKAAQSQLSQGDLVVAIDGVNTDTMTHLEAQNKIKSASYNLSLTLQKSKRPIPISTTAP

[7] = molecular target: LAP2, Q96RT1
Sequence of LAP2, Q96RT1 (Q96RT1 other isoform, or with tags, fused parts or gaps): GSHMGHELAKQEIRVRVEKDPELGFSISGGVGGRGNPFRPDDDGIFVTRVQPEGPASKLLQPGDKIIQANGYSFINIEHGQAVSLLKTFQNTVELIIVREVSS

[8] = molecular target: T3, APBA2_2, Q99767
[9] = molecular target: GRIP2_6, Q9C0E4
Sequence of GRIP2_6, Q9C0E4 (Q9C0E4 648-740): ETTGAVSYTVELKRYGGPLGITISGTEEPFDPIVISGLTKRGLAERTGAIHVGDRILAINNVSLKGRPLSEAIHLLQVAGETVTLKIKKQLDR

[10] = molecular target: GRASP, Q7Z6J2
Sequence of GRASP, Q7Z6J2 (Q7Z6J2 96-193): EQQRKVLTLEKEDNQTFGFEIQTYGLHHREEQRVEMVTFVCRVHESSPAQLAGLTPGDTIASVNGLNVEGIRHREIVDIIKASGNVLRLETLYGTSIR

[11] = molecular target: T4, FRMPD1, Q5SYB0
[12] = molecular target: T5, NHERF3_3, Q5T2W1
[13] = molecular target: T6, NHERF3_1, Q5T2W1
[14] = molecular target: T7, GRIP1_4, Q9Y3R0
[15] = molecular target: T8, RAPGEF6, Q8TEU7
[16] = molecular target: MAGI2_2, Q86UL8
Sequence of MAGI2_2, Q86UL8 (Q86UL8 410-522): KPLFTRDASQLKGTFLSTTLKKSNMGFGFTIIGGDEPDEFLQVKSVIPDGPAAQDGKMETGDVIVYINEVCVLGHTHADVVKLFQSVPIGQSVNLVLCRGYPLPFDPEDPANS

[17] = molecular target: DLG4_1, P78352
Sequence of DLG4_1, P78352 (P78352 62-152): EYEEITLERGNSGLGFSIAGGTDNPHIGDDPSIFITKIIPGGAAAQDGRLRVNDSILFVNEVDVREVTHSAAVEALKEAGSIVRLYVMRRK

[18] = molecular target: T9, HTRA4, P83105
[19] = molecular target: Inadl_6, Q8NI35
Sequence of Inadl_6, Q8NI35 (Q8NI35 1058-1167): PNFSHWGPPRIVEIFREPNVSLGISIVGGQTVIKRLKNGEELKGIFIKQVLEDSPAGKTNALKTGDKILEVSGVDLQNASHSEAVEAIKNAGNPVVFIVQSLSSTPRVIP

[20] = molecular target: T10, APBA1_2, Q02410
[21] = molecular target: FRMPD3, Q5JV73
Sequence of FRMPD3, Q5JV73 (Q5JV73 12-100): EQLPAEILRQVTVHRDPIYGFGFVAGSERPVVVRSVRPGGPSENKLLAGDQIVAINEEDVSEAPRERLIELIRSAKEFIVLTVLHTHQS

[22] = molecular target: T11, LIN7B, Q9HAP6
[23] = molecular target: PARD3_3, Q8TEW0
Sequence of PARD3_3, Q8TEW0 (Q8TEW0 582-685): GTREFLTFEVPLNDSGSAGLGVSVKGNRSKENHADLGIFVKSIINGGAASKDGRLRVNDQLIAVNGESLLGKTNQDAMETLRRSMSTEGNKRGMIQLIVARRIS

[24] = molecular target: DLG2_3, Q15700
[25] = molecular target: T12, GRIP1_5, Q9Y3R0
[26] = molecular target: DLG1_1, Q12959

Binder | pKd [1] | pKd [2] | pKd [3] | pKd [4] | pKd [5] | pKd [6] | pKd [7] | pKd [8] | pKd [9] | pKd [10] | pKd [11] | pKd [12] | pKd [13] | pKd [14] | pKd [15] | pKd [16] | pKd [17] | pKd [18] | pKd [19] | pKd [20] | further results
VRPGVKESLV [SCN4A, P35499] | below the threshold | below the threshold | below the threshold | 4.19 | 5.05 | below the threshold | 3.99 | below the threshold | below the threshold | below the threshold | below the threshold | below the threshold | 4.6 | below the threshold | below the threshold | 5.2 | 4.98 | below the threshold | 3.54 | below the threshold | pKd [21]: below the threshold; pKd [22]: 4.04; pKd [23]: below the threshold; pKd [24]: 4.27; pKd [25]: below the threshold; pKd [26]: 4.71
SVISRREWYV [NECTIN3, Q9NQS3] | below the threshold | below the threshold | 5.1 | 4.34 | below the threshold | below the threshold | 3.59 | below the threshold | 4.81 | below the threshold | below the threshold | below the threshold | 4.52 | below the threshold | below the threshold | 5.35 | below the threshold | 3.86 | below the threshold | 3.85 | pKd [21]: 4.06; pKd [22]: below the threshold; pKd [23]: 4.75; pKd [24]: 4.05; pKd [25]: below the threshold; pKd [26]: below the threshold
RDFDYIADWC [PKN2, Q16513] | below the threshold | 3.67 | 3.87 | 3.8 | below the threshold | below the threshold | 4.01 | below the threshold | below the threshold | 4.3 | below the threshold | below the threshold | 4.27 | below the threshold | below the threshold | below the threshold | below the threshold | 4.9 | 3.56 | 3.82 | pKd [21]: 3.48; pKd [22]: 3.9; pKd [23]: 3.76; pKd [24]: 3.77; pKd [25]: below the threshold; pKd [26]: below the threshold
NRVDSKETEC [ADAM17, P78536] | below the threshold | below the threshold | below the threshold | 3.88 | 4.87 | below the threshold | below the threshold | below the threshold | below the threshold | below the threshold | below the threshold | below the threshold | 3.81 | below the threshold | below the threshold | below the threshold | 4.32 | below the threshold | below the threshold | below the threshold | pKd [21]: below the threshold; pKd [22]: 4.05; pKd [23]: below the threshold; pKd [24]: 3.97; pKd [25]: below the threshold; pKd [26]: 4.32
AEDEEIQTKM [UNC93A, Q86WB7] | below the threshold | below the threshold | below the threshold | 4.72 | below the threshold | below the threshold | below the threshold | below the threshold | below the threshold | below the threshold | below the threshold | 4.16 | 5.39 | below the threshold | below the threshold | below the threshold | below the threshold | 3.8 | below the threshold | below the threshold | pKd [21]: below the threshold; pKd [22]: below the threshold; pKd [23]: below the threshold; pKd [24]: below the threshold; pKd [25]: below the threshold; pKd [26]: below the threshold
LDKESFLTWL [YAP1, P46937] | 3.87 | 4.06 | 4.84 | 4.28 | below the threshold | 4.36 | 4.2 | below the threshold | below the threshold | 5.31 | below the threshold | 4.15 | 5.1 | below the threshold | below the threshold | 3.55 | below the threshold | 4.65 | 5.66 | 4.88 | pKd [21]: 4.4; pKd [22]: 3.48; pKd [23]: 4.98; pKd [24]: below the threshold; pKd [25]: below the threshold; pKd [26]: 4.01
